The data set in a line: protease stability score; higher = more stable; yeast display proteolysis, trypsin and chymotrypsin.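 Further: log10 excess protease needed over predicted unfolded state with 0 meaning unfolded.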
Sequence “DHTVLEKAATALKQGDTDKMNKLADENVKMKVGDKEFHGRQQVNTALKRIKEQVDHRSIRSIENRGNRVTIDANVVVNGKHVDVNFILVVHNGRLKMFQIRVTDPQVHRRLSEIMS” had a protease stability score of 0.722.

In turn, “DEDVEDRVRRFLEQVNHNNPQDLSKYMDPNARLDIGDKVLHGREDIHKFWEDLIRESRIEVREMDVKVHNGRVSATVRFVEHENGNPRETVMKITATWSNGRAQFMRFQSDG” showed a protease stability score of 0.82.

“DEEEKAREYNKTIRQVWHDNNEEDMMRLADENARLEYGDKQLHGRENFRKRQHDIHRRVDKVDVDVKRVEVHNGKFKAQFTFTLVSNGENNKRLYILVAQLHGDKFRIKQIVEQ” gave a protease stability score of 0.099.

In turn, “DEDANHRFKDQVRAIKTGDSKRVEELVDPNVHNHVGEWRVHGSTHWATLAKQVRDEMRVDLDIKSVENSGNKLNIDANVIIDHNGKPHRNQVNWNVNNHNGRIQEASAKKSN” showed a protease stability score of -0.484.

“DEEDQKRKANNVAENLINGNEDEARKYIDKDARVHVGDKTYRGREEARKVWHELRKKVDHLRVEHIDVQGDKVDVQAFFRHNGNQTNIQVHIRMENGHVKSISVDNR” displayed a protease stability score of -0.216.

Sequence “DEHKEAHQFAREMNKALETGDPDRYAQLADPNVKVDIGDKTYKGREDMSQYIEDLLTDADHVSMNIRSIDVQGEKVSLDFEVSNDSNGQQTRRKVKVTAERQGDKLVIVSIKVS” yielded a protease stability score of 0.184.

On to “DDHNIQRLKQFLDDWERGDPDKLKDLVDPNVEFRIGEREVHGMDHWATQLTEERRDQRFQLKDMRVQERPGRVEVRLDYEQDHNGKPERQIVKFVAQATNGELKWVNWTRDS”, for which the protease stability score was -0.017.

Turning to “EEELKKVWTEMQDALENGNEEKIEENFDPNAHFQIGDTHIHGMHEWAHQQFREMKDIRVQVEIESVTFSGDKVNVEYSFTLEIDGRPQSNTATMSARVHNGHFKSVSIRIDPKELKDRQK”, the protease stability score is 0.601.

“DEEATKNAERLMRALNTNNEDEVLEMVDKNATMQYGDKTYHGREEISQAVDERRKEMRVHLRRVTVNAQGDKLDIKANMEVDHNGRPIKVNLRIEAKAHNGRITDIKIETDPELTRQRRT” showed a protease stability score of 0.539.

As to “DRRETAKEVMKKISDILKENDENRLEDLMDPNAKVNVGDKRVHGRREAANQMVEEHTRYDHMDMDIRRIDVDGDKIIVIFTVTLTNNGKTDTKNVVIYFTVHNGRVQITRIRHK”, the protease stability score was -0.157.

As to “DEEERLRTILKLFEEALKHNDEDRLRKLADKDVRMRVGDKEYRGKEKFADFMRKLRTKADKVRIQIKQVNIQGNHNTMDITLVFNVNGNNNRFKVNFVFDIRGDSLKLKSATVK”, the protease stability score was determined as 1.32.

Consider “DEEQAKSMVHNMRQNNFEELDKLVDENVRVTVGNKKLHGREEYQKWLENWKKQADRITWDSIDVHGEKIDVEFRAVVNGRTVKQKVDIQFHNGRIKTARYQVTNEELDKIMKEMVE”, for which the protease stability score amounted to 0.866.

The sequence “DHDQRRQAKEMVHAMTKGDEDRLRELLDENAKADVGDSKVHGRTQFLRELRTTMEQSQLRLDSFDVKVKDGRVRMRFSFVEDHNGRPNHKNAELQLRLDNGKVQEVRQRDDG” registered a protease stability score of 0.539.

“DDDKRHLAQRFFEAMKRGDPRQALNNMDPNARVVIGDKVIRGRDKFHEHIDKLNKHQRVQYRDVKLHDQGDKITANVDVVRNENGRPHRNVYVAEFSARNGRLTEVEMREDK” displayed a protease stability score of -0.138.

As to “DEEEQKVFEKVQDAIRDGDEDTVKKLMDENAKVTIGDKDLHGSDNIARHVHKLHKDMRISIDIKHIDVTGDKIRVHARVEVDKNGKPKHYDVDFTARAKNGKVKTLNYREDS”, the protease stability score came out at 0.694.

Sequence “DEQENEKNVKDVQHAMETGDEELMLRNAPPDVRMEIGDKTLRGREEVSKEFKKFAKQIDRHSIHSIRFRGDKFEINMVVTVNGRHAVVNIELQIHNGKVNSMRVDPHDLEQQKQ” came in with a protease stability score of -0.249.

“DQHDAERMNRVFEQNNEEELHQLMDPNVEVTVGNKRVKGRERAKKLFKRLVTNIDHVSYRSVNDDGDKLELKFVAVINGQTYHLKIEVTLHNGKVKSIHLDARDEKLKHLLDEWLH” showed a protease stability score of 1.39.

With “DKEDAEKVMKTMMKVVEKGDPEQLMKVGSEGVEYQAGDLKAHGPEALKQVMDYLQKHGVRLEIKHAEVEGNTVRTYVEYKNGEETDTVEANADVDGGKIDRVEVEVGERAEKWLKHG”, the protease stability score is -0.57.

As for “DEEEVRELAERFAENLERGDFHKVANQADPNARMQIGDTRYHGREELQRFLKELMERVDHLQIRSVKVRGNHVTIRMHVHYNGKSVDMHMTFHAKNGKIKHVEFNPKDFDKARR”, the protease stability score is 0.813.

The sequence “EDTFVRLVHQMWNDLERGNPEKFRENVDPNARIQVGDQTIHGREQAEEWAERLKRKLQFTVDVKSVTEEPGRIRMRANLINNHNGRPTTKHVIFLANETNGRIKTFRFRQDQ” showed a protease stability score of 0.103.

Sequence “DPKRVRQVAKEVAKAFLNGDKDKVKKYGDPNVKAKVLDEETQGVEQIMRELEKFMKLGVQYETKEVREEGDYVEVHTEYRDGDTTAKMTVIYKARDGKVEHLEVHYDRDARKIFRKG” yielded a protease stability score of 0.144.

For the sequence “DDDAQRRLEDQLKQIEEGNPEQIRNQVDPNATLRYGDKTIQGREEIVKWWKRIRDESRIQFHLKSMEVSGDQVRVVFNLVVKHNGKPSHSQVVVTLRFHNGKVTEVSMQHTS”, the protease stability score came to 1.71.

On to “DESKKAKKFMEEYKRAIETGDEDTAKNLADKDARVKVGDTTYTGMDHIRERVVTEAKQVDHITFEVKEMQTRPGRLKVRMDVIFDHDGRKDRKEVVLVFKDNNGKVLLLSASYQ”, for which the protease stability score is -0.041.

Sequence “DEEEIRHINRKLLKALQEGNEHEVAKLADKDASFDIGDKTYNGRHQVRNMIRKIRSQVDHMTVERMSISNGRIFVFIVFEINGRTRRTNQVVEVKNGRIKEVHVKET” yielded a protease stability score of 0.145.

As to “DEDHASRQAKKFIDAMRSGDEELAKNLVDKDVTAIYGDRTVNGREQVMKMVKEFRNQADEITVDDMKVKNGRVVIHLKMDINGEQEVVIVILDIRNGRAKEISFERR”, the protease stability score came to 1.27.

Take “EDENRKRIEHFLEVKEHGNPDEAKRLADPNVHLKVGDQTVHGRSQLSKILEKEVKEIRFSMQIDSYDDRPGRIKMSATMVLNINGQPIKVTFDAEYVLDNGRISHVEIRMDPTRLHEIKK”: the protease stability score amounted to 0.64.

Regarding “DHEETFRKLLHDLDEAMRRGDTKRIQDLADENVQLEVGDKTIHGREEFAKFWMDLQKRVDHLELHVEHIHVSGDRIRAKIVLVFHHNGQTRTRSAQVVLVQENGRNVFTKIQFN”, the protease stability score came to 1.17.

In the case of “EEENSKLMEEIVKAISNGNPDRVRENMDPNARARYGDKRIHGMENILTQIERRWRQIRIQVDDVKLSVENGTINVDIQQRNDNNGQPDNFRLEASASVENGKVKEMNVVKRP”, the protease stability score was 0.014.

The sequence “DEEKIDRLLHEVVKAYLSGHSEKLKKLLKEDGQLHALSQTYHGKEQVMKVAEEFKRYGVELQIQDQKTEGDTLKVKAQAHKGGTTWEFEVKVKADGGKADELTIKVSEEAHKMIQRG” had a protease stability score of -0.298.

As for “DEEHVDRVVKVLQHNDEEQFKRNAPPDARINIGDKQYRGREDAVEALSELWHRADHIRLHDITVRGNKIEMDMVFVVNGQHVRVVLDVEMRNGKVEQIDAHVTDEKDEENLQRAMD”, the protease stability score turned out to be 0.393.

Sequence “DEETNKKFASELVHVLRTGDDERLKSMADENATLEVGDKTFHGREEMRKAAEEWQKEIDDLKIESLHVNGDKVVIHFVFTVNGRTDRQIMHLHFDNGKIKSAKMHSG” came in with a protease stability score of 0.96.

With “DEHVQQALERYWDAVTTNNPEQAVNNVDPNVEIVVGDKTLTGREDVHKHIKDVKDKQNVEIKSMQLRVHNGRVRARFKFEVNHNGEPTTDVVVVEAEVKNGKIQRVEARRDK”, the protease stability score turned out to be 0.899.

Turning to “DEKLLELAKKMRRAEETGDEDQLREMADKDAKFDIGDKRIHGMDTFVRQIKHELDKMRREITSVEFRVEGEEVVIHVHWVYSHNGQPRTKEYTMKFEIRGDKIKDLHIDNRG”, the protease stability score was 0.007.

On to “DDEDAKHLMQVLQNGDEDRFAELVDENAHQTIGDKTIHGRSEFDRIHEKLKKRIDNFRVNDYRIDNGSVNADVSANVNGQKIRFKYQAHVTNGHIKEMRFQATDPRQEDKWHEMQK”, for which the protease stability score is -0.031.

Sequence “DEEKQAKTALKRYKDAIKDGDEELAKRLFDKHARIEIGDKEVHGREEIARRIREMVERADHIDIKLQSMRVRGDHIRLELTMTVNINGKKEKSRFQFVMQRRGDEVYVTSMHQT” came in with a protease stability score of -0.003.

Sequence “DRSQVESAMRKALHNDPREHEKMFDKDARIQIGDTTFTGQETVLRVIRQLLTKADHIQINDYEISGNKVRIDVQVEVNGRRVRVELDFTVSNGRIKHATWKARSEEELHRIKENLR” yielded a protease stability score of 0.239.

The sequence “DEKVQDLVQKFVKWLAQGDHKKLADLLDPNARLHIGEFNVHGREQLREAVTRLQTRMHLSVNRVDASASNGKIKASAKFTVKHNGQPDKKHLNFSAVARGEKVKHMEASDDQ” displayed a protease stability score of -0.287.

In turn, “DEKAKDLFSKVMEAIRTGDEQKIRDNADPNVSVRYGDRNLTGREKVAETNYKIKRHMRIKIDHVRMEVHNGEAEVNVKRVITINGRPTRDTYRLIVVAQGDKLKSVVWKFSEEQRKRLEQ” showed a protease stability score of 0.411.

Regarding “DHSKHLTNVIKRMQRLFKHGNFSEVAKQADKDVEVRVGDKTYNGRDQYVDSQRKIEHQVDNADLKFQHVDNQGDKIDVIYEFVVVHNGRHEKTTEQAVLSLHNGRVRATKIHDS”, the protease stability score is -0.102.

Consider “DHHARTQAEHLLEALRNGNEDQLMKLIDPNARFRYGDKEVHGSEQFREQVHTLKREIRMDVKEYRFTVEGNRLVVKVTAILDTNGKPDTRDVDNHAIVHNGKIKQFTVDNKS”, for which the protease stability score was -0.134.

In the case of “DEEKIAQKAVDRVEEAMNRGDPDTMKHLLDKDARITYGDQQYHGREEVIKFMDEFVENVDHVNVEFKEVEVHNGRARASARVVYTHNGQSHDVKLEVVFLIQGDEVRLTHLHYG”, the protease stability score was determined as 2.11.

On to “EKEAKTLAHHVMEALEKNDPDQMDEQLDENARVQVGDREVHGREEVNKQIKRLKKHAHFEIESVTLDVQGDKVDAQYTMRADVNGKPWRDHVTVEIHVRNGRIKELRFRMDPQRLRDFKK”, for which the protease stability score came out at 0.72.

“DEELRKQAEELLKARKTNDERQNEELFDPNAHVRYGDRTLHGNEQASKDIADRLEEIRVSMSVEKVEVQGEHVRLEFKFEFEVNGRPQTQTATEEMTVHNGRIKEVRLNVSEEQKRRYKK” gave a protease stability score of -0.026.

The sequence “DESKEAHTLAKKYVELVKKGDQEKMKTMFDPNAKAHIGDKTYHGMTDFVETLVEQAKRVDHQSVDVKSVEVDGDHIDVEVTVKYTYNGQNRSNVERFIVRNHNGKWRVKEWHDK” had a protease stability score of -0.145.

Turning to “DHDALRHATEILRARKTGDDKRIRELVDPNAHVVIGDKSLHGREQIVKFVTKENEEMSIQYRHVSTETRNGRVDIRMDADMRKNGTPDRVRQEMKAEFHNGRLQRMSVHDDK”, the protease stability score is -0.331.

For the sequence “DEKRVEELARKLFKYIINGDQEKVKTLLKPNVEYNYIDTQYKGPDAAVTMAQEVKKVGAEVKVREEKVEGNTAEVVFQYRVGDNTMQTKAQVHYEGDKVKEVRVELSEEVKKVVHQG”, the protease stability score came out at 0.124.

Take “EEELVKRLKELFEAYQTGDEHQLKDLMDPNVRANIGDKTFHGREKLITHIKRYLDELDFQLKSVTFRLSGDHAVVTFEIEVDVNGVPRSFRFRFHIKMSNGKVTEIEIQFDPERQKKLES”: the protease stability score came to 1.38.

For the origin of these results see the NTF2 design screens of Basanta et al. (2020).
